This note sets out measurements from US20230050773A1 (AstraZeneca / MedImmune, published 2023).

Assay [1] concerns the target T1, recombinant human LIF (Leukemia Inhibitory Factor) (human, UniProt P15018 23-202).
T1 construct: also called biotinylated recombinant human LIF
As to the kind of experiment: BLI (Octet), antibody on anti-human Fc biosensors, human LIF in solution. As for the experimental part:
Affinities were determined using biolayer interferometry on the Octet platform. Anti-human Fc biosensors were used to load chimeric B7 and humanized variants, and titrations of recombinant human LIF (200 nM→0 nM) were associated for 180 seconds followed by a 300 second dissociation step. Affinity measurements are recorded in Table 3.
On the technique in general: Biolayer interferometry detects binding as a change in optical thickness at a sensor tip.

Assay [2] addresses T1, recombinant human LIF (Leukemia …). The experiment in a line: cell-based or functional assay.
Assay [3] shares this target. The experiment in a line: ELISA, coated recombinant human LIF, anti-human Fc HRP detection. As for the experimental part: Recombinant human LIF was coated on maxisorp plates overnight at 4° C. The next day, plates were blocked with casein blocking buffer for 1 hour at 37° C. Titrations of each antibody were added to the plates and allowed to bind for 1 hour at room temperature. Plates were washed 4× with PBST followed by incubation with an HRP conjugated anti-human Fc secondary for 30 minutes at RT. Plates were then washed again with 4×PBST and then developed using TMB substrate and 1M HCl.
Background: An ELISA detects its analyte on a solid surface through an enzyme-linked reagent.

Assay [4] has the same target. As to the kind of experiment: LIF:LIFR blocking ELISA, coated human LIFR, biotinylated human LIF premixed with antibody. On the procedure: Recombinant human LIFR was coated on maxisorp plates overnight at 4 C. The next day, plates were blocked with casein blocking buffer for 1 hr at 37 C. During this period, titrations of each antibody were mixed with biotinylated recombinant human LIF. Following blocking, the antibody/antigen premix was added to the plates and allowed to incubate for 1 hr at RT. Plates were then washed with 4×PBST and an HRP conjugated avidin secondary reagent was added for 30 min at room temperature. Plates were washed again with 4×PBST and then developed using TMB substrate and 1M HCl.

T1 sequence (P15018 23-202 limits assumed, form in doubt): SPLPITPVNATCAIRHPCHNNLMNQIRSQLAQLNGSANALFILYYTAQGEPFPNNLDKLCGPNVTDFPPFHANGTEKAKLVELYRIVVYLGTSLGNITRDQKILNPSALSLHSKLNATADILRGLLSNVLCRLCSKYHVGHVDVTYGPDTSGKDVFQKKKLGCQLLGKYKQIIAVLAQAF

B1: NB0919 (antibody, V domains shown)
VH: QVQLQESGPGLVKPSDTLSLTCTVSGFSFSTDYWWSWIRQPPGKGLEWIGYIYVGTSGDTYYNPSLKSRVTISVDTSKNQFSLKLSSVTAADTAVYYCAGADNPYDYFNLWGQGTLVTVSS
VL: DIQMTQSPSSLSASVGDRVTITCRASETISGYLNWYQQKPGKAPKLLIYRASSLQSGVPSRFSGSGSGTDFTLTISSLQPEDFATYYCQQGYSYSDTDNVFGGGTKVEIK
notes: Humanized variant of B7 by CDR grafting; also called Clone 919
As to B1, the dissociation constant Kd (commonly the free concentration of one partner at which half of the binding sites on the other are occupied at equilibrium, for simple one-to-one binding) in assay [1] came out at 19.6 nM. The “pSTAT3 inhibition assay IC50 (nM)” value in assay [2] was 52.7 nM. In addition, in assay [3], the EC50 – broadly, the concentration giving half of the maximal effect – was determined as 0.17 nM.

B2: NB0937 (antibody, V domains shown)
VH: EVQLVESGGGLVQPGGSLRLSCAASGFSFSTDYWMSWVRQAPGKGLEWVSSIYVGTSGDTYYADSVKGRFTISRDNSKNTLYLQMDSLRAEDTAIYYCAGADNPYDYFNLWGQGTLVTVS
VL: DIQMTQSPSSVSASVGDRVTITCRASETISGYLAWYQQKPGKAPKLLIYRASSLESGVPSRFSGSGSGTEFTLTISSLQPDDFATYYCQQGYSYSDTDNVFGGGTKVEIK
notes: Humanized variant of B7 by CDR grafting; also called Clone 937
Regarding B2, in assay [1], the Kd was determined as 5.02 nM. In assay [2], the “pSTAT3 inhibition assay IC50 (nM)” value came out at 7.22 nM. Also, the IC50 (as a rule, the concentration that gives 50% inhibition) in assay [4] came out at 16.6 nM. The EC50 in assay [3] was found to be 0.08 nM.

B3: NB0920 (antibody, V domains shown)
VH: QVQLQESGPGLVKPSDTLSLTCTVSGFSFSTDYWWSWIRQPPGKGLEWIGYIYVGTSGDTYYNPSLKSRVTISVDTSKNQFSLKLSSVTAADTAVYYCAGADNPYDYFNLWGQGTLVTVSS
VL: DIQMTQSPSSLSASVGDRVTITCRASETISGYLAWYQQKPGKVPKLLIYRASTLQSGVPSRFSGSGSGTDFTLTISSLQPEDVATYYCQQGYSYSDTDNVFGGGTKVEIK
notes: Humanized variant of B7 by CDR grafting; also called Clone 920
Turning to B3, the Kd in assay [1] was determined as 9.97 nM. Moreover, in assay [2], the “pSTAT3 inhibition assay IC50 (nM)” value was 38.7 nM. The EC50 in assay [3] came to 0.12 nM.

B4: NB0938 (antibody, V domains shown)
VH: EVQLVESGGGLVQPGGSLRLSCAASGFSFSTDYWMSWVRQAPGKGLEWVSSIYVGTSGDTYYADSVKGRFTISRDNSKNTLYLQMDSLRAEDTAIYYCAGADNPYDYFNLWGQGTLVTVS
VL: DIQMTQSPSSLSASVGDRVTITCRASETISGYLNWYQQKPGKAPKLLIYRASSLQSGVPSRFSGSGSGTDFTLTISSLQPEDFATYYCQQGYSYSDTDNVFGGGTKVEIK
notes: Humanized variant of B7 by CDR grafting; also called Clone 938
With B4, the Kd in assay [1] was 10.6 nM. In assay [2], the “pSTAT3 inhibition assay IC50 (nM)” value came to 11 nM. Further, in assay [4], the IC50 amounted to 24.4 nM. Also, in assay [3], the EC50 came out at 0.13 nM.
